Test results taken from US20240117011A1.

Molecular target: spike of variant B.1.351 v.1 on pseudovirus
Experiment: cell-based or functional assay

CB6 (antibody) gave a neutralization IC50 greater than 10 µg/mL.

In the case of LY-CoV555 (antibody), the neutralization IC50 is reported as greater than 10 µg/mL.
